Variants at the floor of the assay were thinned out.
B1: TPR 5TU (parent)
chain: GGAUCUUCUCGAUCUAACAAAAAAGACAAAUCUGCCACAAAGCUUGAGAGCAUCUUCGGAUGCAGAGGCGGCAGCCUUCGGUGGCGCGAUAGCGCCAACGUUCUCAACUAUGACACGCAAAACGCGUGCUCCGUUGAAUGGAGUUUAUCAUG

Variants of: B1
Assay: polymerase ribozyme fitness, log enrichment relative to wild type (log ratio); higher = more active; in vitro selection for triplet polymerase activity
Outline: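 After PCR construction and transcription, each subunit's mutant library from a heterodimeric triplet polymerase ribozyme was annealed with a biotinylated primer, the partner subunit and triplets. Incubation was frozen, at −7 °C, and extended constructs were gel-excised, bound to streptavidin beads and amplified by RT-PCR, in one selection round done in triplicate. Fitness is the logarithm of a genotype's enrichment divided by that of the wild type, from inverse-variance-weighted replicate averages of Illumina-sequenced inputs and outputs. The base of the logarithm is 2, and genotypes needed ≥10 input reads and ≥1 read per output.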

Q: With C87U C116U C118A as the variant, how does the “polymerase ribozyme fitness (log ratio)” value read?
A: -0.495

Q: With A89G C95A G136U as the variant, how does the “polymerase ribozyme fitness (log ratio)” value read?
A: -3.75

Q: For U55G U56A C93A C114A, which “polymerase ribozyme fitness (log ratio)” value is on record?
A: ≤ -4.2

Q: With U4A A21G U55G U101G G152A as the variant, how does the “polymerase ribozyme fitness (log ratio)” value read?
A: ≤ -4.2

Q: For U53C A97U C114G U145A, which “polymerase ribozyme fitness (log ratio)” value is on record?
A: -3.74

Q: With A73C G141A as the variant, how does the “polymerase ribozyme fitness (log ratio)” value read?
A: -3.8

Q: With C57U G124U G128U as the variant, how does the “polymerase ribozyme fitness (log ratio)” value read?
A: -3.76

Q: With C72A C125U as the variant, how does the “polymerase ribozyme fitness (log ratio)” value read?
A: ≤ -4.2

Q: For A20G A47G, which “polymerase ribozyme fitness (log ratio)” value is on record?
A: -0.368

Q: Which “polymerase ribozyme fitness (log ratio)” value does the source give for G71C here?
A: -2.66

Q: For G71A, which “polymerase ribozyme fitness (log ratio)” value is on record?
A: -2.47

Q: Which “polymerase ribozyme fitness (log ratio)” value does the source give for A23U U44A U55A A122U here?
A: ≤ -4.2

Q: With A40U G70C C79G A106G U135C U145G A150C as the variant, how does the “polymerase ribozyme fitness (log ratio)” value read?
A: ≤ -4.2

Q: Which “polymerase ribozyme fitness (log ratio)” value does the source give for A37C C57G C76G A98G A138C G140U here?
A: -3.42

Q: Which “polymerase ribozyme fitness (log ratio)” value does the source give for A12U A39U U55A G68A C96U U145G here?
A: ≤ -4.2

Q: With U6A G50A A89U G92U A137G as the variant, how does the “polymerase ribozyme fitness (log ratio)” value read?
A: -3.34

Q: With C93G C96A C105U C116U as the variant, how does the “polymerase ribozyme fitness (log ratio)” value read?
A: -4.17

Q: For A20C U55G G67U C72A C85U, which “polymerase ribozyme fitness (log ratio)” value is on record?
A: ≤ -4.2

Q: For A16G U33G C95G, which “polymerase ribozyme fitness (log ratio)” value is on record?
A: ≤ -4.2

Q: For A21G G42A A49C A66U U82C C87U U135G U145A U148A, which “polymerase ribozyme fitness (log ratio)” value is on record?
A: ≤ -4.2

Q: With C63U C75A G86A A89U A106U U134G as the variant, how does the “polymerase ribozyme fitness (log ratio)” value read?
A: ≤ -4.2

Q: With U53C C57A C95U A98G U104A as the variant, how does the “polymerase ribozyme fitness (log ratio)” value read?
A: -0.528

Q: For A19C C32U A49G G59U, which “polymerase ribozyme fitness (log ratio)” value is on record?
A: ≤ -4.2

Q: For C54G G84A, which “polymerase ribozyme fitness (log ratio)” value is on record?
A: -1.74

Q: With A20G C27G G42C G58C G68A A121C C125U G140A as the variant, how does the “polymerase ribozyme fitness (log ratio)” value read?
A: ≤ -4.2

Q: Which “polymerase ribozyme fitness (log ratio)” value does the source give for G48C A120C here?
A: -0.573

Q: For A39G A47C, which “polymerase ribozyme fitness (log ratio)” value is on record?
A: -1.49

Q: Which “polymerase ribozyme fitness (log ratio)” value does the source give for A16U A20U U146A here?
A: -3.95

Q: Which “polymerase ribozyme fitness (log ratio)” value does the source give for G59U A106G C114U here?
A: -1.65

Q: Which “polymerase ribozyme fitness (log ratio)” value does the source give for C27U A37U C125U here?
A: -3.74

Q: For A41G C63U, which “polymerase ribozyme fitness (log ratio)” value is on record?
A: 0.774

Q: With A30U C69U C85U A106G C123U A137G as the variant, how does the “polymerase ribozyme fitness (log ratio)” value read?
A: ≤ -4.2

Q: With G80A G84A as the variant, how does the “polymerase ribozyme fitness (log ratio)” value read?
A: -0.264

Q: For U31A U55A C95U G128U A137C G143U, which “polymerase ribozyme fitness (log ratio)” value is on record?
A: ≤ -4.2

Q: Which “polymerase ribozyme fitness (log ratio)” value does the source give for A3U A17U U55G G84A C96A G133U G152C here?
A: ≤ -4.2

Q: With G59C C75U as the variant, how does the “polymerase ribozyme fitness (log ratio)” value read?
A: -1.52

Q: For C38A C95G C99U A138G, which “polymerase ribozyme fitness (log ratio)” value is on record?
A: ≤ -4.2

Q: Which “polymerase ribozyme fitness (log ratio)” value does the source give for A28G C38U U61A G67U C85G A98G here?
A: -3.98

Q: For A147U U148A, which “polymerase ribozyme fitness (log ratio)” value is on record?
A: -2.81

Q: Which “polymerase ribozyme fitness (log ratio)” value does the source give for A12U G34C G46A G83A A121U G141U here?
A: ≤ -4.2

Q: With A17C U33C G83A G141U as the variant, how does the “polymerase ribozyme fitness (log ratio)” value read?
A: ≤ -4.2

Q: For A19C A29U C54G C108U, which “polymerase ribozyme fitness (log ratio)” value is on record?
A: ≤ -4.2

Q: Which “polymerase ribozyme fitness (log ratio)” value does the source give for G59C G83A C103U A122G here?
A: -0.809

Q: For C87G C93A, which “polymerase ribozyme fitness (log ratio)” value is on record?
A: -3.63

Q: With C8G A28G U61A U104A A110U A120G A138C as the variant, how does the “polymerase ribozyme fitness (log ratio)” value read?
A: ≤ -4.2

Q: Which “polymerase ribozyme fitness (log ratio)” value does the source give for A20U G50C G58U C79G G84U U90G A107G C108G here?
A: ≤ -4.2

Q: For A26C C36G C116A U148G, which “polymerase ribozyme fitness (log ratio)” value is on record?
A: ≤ -4.2

Q: With G86A U148C as the variant, how does the “polymerase ribozyme fitness (log ratio)” value read?
A: -1.5

Q: With C14G A17G G46C G81A C96G A120G as the variant, how does the “polymerase ribozyme fitness (log ratio)” value read?
A: ≤ -4.2

Q: For C35U C57U, which “polymerase ribozyme fitness (log ratio)” value is on record?
A: 0.194

Q: For C35U A142G, which “polymerase ribozyme fitness (log ratio)” value is on record?
A: -1.79

Q: With A19G A23U A30C G48U U56C A60U C87U as the variant, how does the “polymerase ribozyme fitness (log ratio)” value read?
A: ≤ -4.2

Q: Which “polymerase ribozyme fitness (log ratio)” value does the source give for G62C C72U C93U G133A G141U here?
A: ≤ -4.2

Q: Which “polymerase ribozyme fitness (log ratio)” value does the source give for C38U A120U A142U here?
A: -0.329

Q: For A52C U55A A91G U111A U139G, which “polymerase ribozyme fitness (log ratio)” value is on record?
A: ≤ -4.2

Q: With C51A C63A G88U G126A as the variant, how does the “polymerase ribozyme fitness (log ratio)” value read?
A: ≤ -4.2

Q: Which “polymerase ribozyme fitness (log ratio)” value does the source give for C76A C85A G143U here?
A: ≤ -4.2

Q: With G58C A60C G94A G100C C103A as the variant, how does the “polymerase ribozyme fitness (log ratio)” value read?
A: ≤ -4.2

Q: Which “polymerase ribozyme fitness (log ratio)” value does the source give for C18G C63G G68U G71A U78G C85G G100A G141U here?
A: ≤ -4.2

Q: Which “polymerase ribozyme fitness (log ratio)” value does the source give for G65A C96U G112C A115G U144A here?
A: ≤ -4.2

Q: Which “polymerase ribozyme fitness (log ratio)” value does the source give for U9C U13A U15A C76U G86U here?
A: -4.11

Q: For A21U U44A C93G G94C, which “polymerase ribozyme fitness (log ratio)” value is on record?
A: ≤ -4.2

Q: For G74A C114U, which “polymerase ribozyme fitness (log ratio)” value is on record?
A: -3.85

Q: With G59U A60G C93U as the variant, how does the “polymerase ribozyme fitness (log ratio)” value read?
A: -3.87

Q: For C27G A37U U55A U56A G70A G84C C108U, which “polymerase ribozyme fitness (log ratio)” value is on record?
A: ≤ -4.2

Q: With U6A A41C U45A A49G G59U G86A as the variant, how does the “polymerase ribozyme fitness (log ratio)” value read?
A: ≤ -4.2

Q: With A39G U109C U144A as the variant, how does the “polymerase ribozyme fitness (log ratio)” value read?
A: -3.59

Q: Which “polymerase ribozyme fitness (log ratio)” value does the source give for U55C C72U A150U here?
A: 0.059

Q: Which “polymerase ribozyme fitness (log ratio)” value does the source give for A22U C36U U78C U146C here?
A: -3.63

Q: Which “polymerase ribozyme fitness (log ratio)” value does the source give for U6A G83C here?
A: -0.841

Q: With C35G A49U G124C as the variant, how does the “polymerase ribozyme fitness (log ratio)” value read?
A: ≤ -4.2

Q: For U56G A97C, which “polymerase ribozyme fitness (log ratio)” value is on record?
A: -1.65

Q: For A23G A52U, which “polymerase ribozyme fitness (log ratio)” value is on record?
A: -3.51

Q: With C85G C96U A113U as the variant, how does the “polymerase ribozyme fitness (log ratio)” value read?
A: -3.8

Q: For C18A A39C G58C G84A U145G, which “polymerase ribozyme fitness (log ratio)” value is on record?
A: -3.36

Q: Which “polymerase ribozyme fitness (log ratio)” value does the source give for C38G G92C C95U here?
A: -1.62

Q: For A21U C85A A97U, which “polymerase ribozyme fitness (log ratio)” value is on record?
A: -2.01

Q: For C27U U33C A73G C85U, which “polymerase ribozyme fitness (log ratio)” value is on record?
A: -0.859

Q: With C36U C103G as the variant, how does the “polymerase ribozyme fitness (log ratio)” value read?
A: -3.78

Q: With U55A C63U A142U as the variant, how does the “polymerase ribozyme fitness (log ratio)” value read?
A: -0.552

Q: Which “polymerase ribozyme fitness (log ratio)” value does the source give for C95U U102G C105U here?
A: -2.98

Q: Which “polymerase ribozyme fitness (log ratio)” value does the source give for A20C C27U C87U G92A U101A here?
A: -1.49

Q: For A12U G58A C85G A106G A137U A150C, which “polymerase ribozyme fitness (log ratio)” value is on record?
A: ≤ -4.2
